The supplement of paper PMC7125110
± gives the standard error. This sample holds only a part of the variants without activity.

B1: glmS ribozyme (parent)
chain: AUAAAAGCGCCAGAACUACAGAAAUGUAGUUGACGAGGAGGAGGUUUAUCGAAUUUUCGGCGGAUGCCUCCAAA

What was measured:
Conditions in all cases: with glucosamine-6-phosphate
glucosamine-6-phosphate [1] = variants of: B1; assay: self-cleavage kobs at 640 uM GlcN6P; higher = faster cleavage; RNA array
How it was run: (§1)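 Barcoded ribozyme variants, transcribed in situ by E. coli RNA polymerase on sequenced MiSeq chips, were followed via a hybridised Cy3 probe at 37 °C. Glucosamine-6-phosphate ranged from 40 μM to 10 mM in HEPES/KCl/Mg(OAc)2 buffer. kobs came from decay fits to per-tile medians, and kcat and KM from weighted Michaelis–Menten fits.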

glucosamine-6-phosphate [2] = variants of: B1; assay: self-cleavage kobs at 2500 uM GlcN6P; higher = faster cleavage; RNA array
How it was run: as §1

glucosamine-6-phosphate [3] = variants of: B1; assay: self-cleavage kobs at 10000 uM GlcN6P; higher = faster cleavage; RNA array
How it was run: as §1

Row | Variant | self-cleavage kobs at 640 uM GlcN6P (glucosamine-6-phosphate [1]) | self-cleavage kobs at 2500 uM GlcN6P (glucosamine-6-phosphate [2]) | self-cleavage kobs at 10000 uM GlcN6P (glucosamine-6-phosphate [3])
1 | A12C U49G C67U | 5e-05 ± 1.4e-05 s⁻¹ | 7.89e-05 ± 1.5e-05 s⁻¹ | –
2 | G7C A64C | < 1e-05 s⁻¹ | – | –
3 | A6U A14C G51C | < 1e-05 s⁻¹ | < 1e-05 s⁻¹ | –
4 | C34U G37A A39G | < 1e-05 s⁻¹ | < 1e-05 s⁻¹ | –
5 | C50G C61A C67U | 0.000392 ± 0.0001 s⁻¹ | 5.47e-05 ± 2.1e-05 s⁻¹ | –
6 | G9C A14G G37U G62C C71A | < 1e-05 s⁻¹ | < 1e-05 s⁻¹ | –
7 | G29C A48G G60A | < 1e-05 s⁻¹ | – | –
8 | C8G A15C C16U | < 1e-05 s⁻¹ | – | –
9 | A36U A42C U47A | < 1e-05 s⁻¹ | < 1e-05 s⁻¹ | –
10 | C11A G13U U31A G32A U47G | < 1e-05 s⁻¹ | – | –
11 | C11A G13U U57G C71U | 4.71e-05 ± 2.2e-05 s⁻¹ | – | –
12 | C16U C34U G66U C68G | 0.000354 ± 0.0001 s⁻¹ | – | –
13 | C16U U30A G44C G63C | < 1e-05 s⁻¹ | – | < 1e-05 s⁻¹
14 | G7A A15U A33G A36U G38U U57C | < 1e-05 s⁻¹ | < 1e-05 s⁻¹ | –
15 | U31C G60U G63C | < 1e-05 s⁻¹ | – | –
16 | A15U A39C A42U | < 1e-05 s⁻¹ | – | –
17 | G9U C10A A42U G51A U54G G60C | < 1e-05 s⁻¹ | – | –
18 | G35A G44A | < 1e-05 s⁻¹ | < 1e-05 s⁻¹ | < 1e-05 s⁻¹
19 | G37U A39C A64G U69G | < 1e-05 s⁻¹ | – | –
20 | C8A G44C U46A | < 1e-05 s⁻¹ | < 1e-05 s⁻¹ | –
21 | A6C C8G C11A A52C U57G G63C U69G | 0.0016 ± 0.00077 s⁻¹ | – | –
22 | G9A U57A | < 1e-05 s⁻¹ | < 1e-05 s⁻¹ | –

Row | Variant | self-cleavage kobs at 640 uM GlcN6P (glucosamine-6-phosphate [1]) | self-cleavage kobs at 2500 uM GlcN6P (glucosamine-6-phosphate [2]) | self-cleavage kobs at 10000 uM GlcN6P (glucosamine-6-phosphate [3])
23 | A12G A15U U45C G59A | < 1e-05 s⁻¹ | < 1e-05 s⁻¹ | –
24 | G7U C10U G43U | < 1e-05 s⁻¹ | – | –
25 | A39C U45G C70G | < 1e-05 s⁻¹ | < 1e-05 s⁻¹ | –
26 | A6U C8A A64U | < 1e-05 s⁻¹ | < 1e-05 s⁻¹ | –
27 | C58U G59C C61U C71A | < 1e-05 s⁻¹ | – | –
28 | U54A A64G C68G | 5.8e-05 ± 2.1e-05 s⁻¹ | 0.000109 ± 3.5e-05 s⁻¹ | –
29 | G7A G44A U46C A48U | < 1e-05 s⁻¹ | < 1e-05 s⁻¹ | –
30 | C50G C67G C70U C71A | 0.000149 ± 4.5e-05 s⁻¹ | 0.000157 ± 2.9e-05 s⁻¹ | –
31 | C16U G38C | < 1e-05 s⁻¹ | – | –
32 | G29C G40A U65G | < 1e-05 s⁻¹ | – | –
33 | A12G G13U U47G A53U G66A | < 1e-05 s⁻¹ | – | –
34 | G13U A39G U55G | 0.000281 ± 8e-05 s⁻¹ | 0.000683 ± 0.00022 s⁻¹ | 0.0028 ± 0.00059 s⁻¹
35 | C8A A53G G63U | < 1e-05 s⁻¹ | – | –
36 | C34G U54A A64G | < 1e-05 s⁻¹ | < 1e-05 s⁻¹ | –
37 | A15G A48U C50U G60A C68G | 0.000775 ± 0.00022 s⁻¹ | – | –
38 | C16U A53U U54G C58A | 3.02e-05 ± 1.5e-05 s⁻¹ | 3.59e-05 ± 1.1e-05 s⁻¹ | 0.000172 ± 2e-05 s⁻¹
39 | C34A A53G U56C | < 1e-05 s⁻¹ | – | –
40 | G40C U65G | 9.16e-05 ± 3.6e-05 s⁻¹ | 0.00036 ± 0.00012 s⁻¹ | 0.000854 ± 0.00025 s⁻¹
41 | G40U C50G | < 1e-05 s⁻¹ | < 1e-05 s⁻¹ | < 1e-05 s⁻¹
42 | C8G C10A G41A | < 1e-05 s⁻¹ | < 1e-05 s⁻¹ | –
43 | C11A G44A C68A | < 1e-05 s⁻¹ | < 1e-05 s⁻¹ | –
44 | U54A G66A C71U | 0.00501 ± 0.00099 s⁻¹ | – | –

Row | Variant | self-cleavage kobs at 640 uM GlcN6P (glucosamine-6-phosphate [1]) | self-cleavage kobs at 2500 uM GlcN6P (glucosamine-6-phosphate [2]) | self-cleavage kobs at 10000 uM GlcN6P (glucosamine-6-phosphate [3])
45 | A14U U30G U69G C71G | 0.000132 ± 4.4e-05 s⁻¹ | 0.00026 ± 5.9e-05 s⁻¹ | –
46 | G32U U47A A53G U56A C71U | 7.91e-05 ± 2.4e-05 s⁻¹ | 0.000259 ± 6.2e-05 s⁻¹ | –
47 | A15U U31C U55G G63U | < 1e-05 s⁻¹ | – | –
48 | A12U A39C A42U G60A | < 1e-05 s⁻¹ | – | < 1e-05 s⁻¹
49 | G43A U46C U54A U56A U69C | < 1e-05 s⁻¹ | – | –
50 | A39U C58A A64U | < 1e-05 s⁻¹ | < 1e-05 s⁻¹ | –
51 | C34G U46G U65A | < 1e-05 s⁻¹ | < 1e-05 s⁻¹ | –
52 | A39G U45A U57C | 0.000107 ± 2.6e-05 s⁻¹ | 0.000294 ± 7.7e-05 s⁻¹ | –
53 | U31A G32A G59U G62A | < 1e-05 s⁻¹ | – | –
54 | A6C C16U G40C U47C G60U | < 1e-05 s⁻¹ | < 1e-05 s⁻¹ | –
55 | G7U A15U U47G | < 1e-05 s⁻¹ | – | –
56 | U30G C50U A64G G66U | < 1e-05 s⁻¹ | < 1e-05 s⁻¹ | –
57 | C8U U56G G63A | < 1e-05 s⁻¹ | – | –
58 | A15U C16A A52U A53C | < 1e-05 s⁻¹ | < 1e-05 s⁻¹ | –
59 | G29C U54G C70G | 7.66e-05 ± 3.1e-05 s⁻¹ | – | –
60 | G43C G51A C67U | < 1e-05 s⁻¹ | – | –
61 | C11U G13A G44U | < 1e-05 s⁻¹ | < 1e-05 s⁻¹ | –
62 | G29C U47A C50A | < 1e-05 s⁻¹ | – | < 1e-05 s⁻¹
63 | A14G G35A U45G G66U | < 1e-05 s⁻¹ | < 1e-05 s⁻¹ | –
64 | U30A G38C A39U | < 1e-05 s⁻¹ | – | –
